Laboratory results from patent publication US20040014670A1 (AJINOMOTO, published 2004).

Tests used:
[1] = biological target: rabbit pulmonal angiotensin converting enzyme (Sigma) (rabbit) (UniProt P12822); test: cell-based or functional assay
[2] = biological target: T1, rabbit pulmonal angiotensin converting enzyme (Sigma) (rabbit, UniProt P12822 34-1310, limits assumed); test: cell-based or functional assay
T1 sequence (looked up): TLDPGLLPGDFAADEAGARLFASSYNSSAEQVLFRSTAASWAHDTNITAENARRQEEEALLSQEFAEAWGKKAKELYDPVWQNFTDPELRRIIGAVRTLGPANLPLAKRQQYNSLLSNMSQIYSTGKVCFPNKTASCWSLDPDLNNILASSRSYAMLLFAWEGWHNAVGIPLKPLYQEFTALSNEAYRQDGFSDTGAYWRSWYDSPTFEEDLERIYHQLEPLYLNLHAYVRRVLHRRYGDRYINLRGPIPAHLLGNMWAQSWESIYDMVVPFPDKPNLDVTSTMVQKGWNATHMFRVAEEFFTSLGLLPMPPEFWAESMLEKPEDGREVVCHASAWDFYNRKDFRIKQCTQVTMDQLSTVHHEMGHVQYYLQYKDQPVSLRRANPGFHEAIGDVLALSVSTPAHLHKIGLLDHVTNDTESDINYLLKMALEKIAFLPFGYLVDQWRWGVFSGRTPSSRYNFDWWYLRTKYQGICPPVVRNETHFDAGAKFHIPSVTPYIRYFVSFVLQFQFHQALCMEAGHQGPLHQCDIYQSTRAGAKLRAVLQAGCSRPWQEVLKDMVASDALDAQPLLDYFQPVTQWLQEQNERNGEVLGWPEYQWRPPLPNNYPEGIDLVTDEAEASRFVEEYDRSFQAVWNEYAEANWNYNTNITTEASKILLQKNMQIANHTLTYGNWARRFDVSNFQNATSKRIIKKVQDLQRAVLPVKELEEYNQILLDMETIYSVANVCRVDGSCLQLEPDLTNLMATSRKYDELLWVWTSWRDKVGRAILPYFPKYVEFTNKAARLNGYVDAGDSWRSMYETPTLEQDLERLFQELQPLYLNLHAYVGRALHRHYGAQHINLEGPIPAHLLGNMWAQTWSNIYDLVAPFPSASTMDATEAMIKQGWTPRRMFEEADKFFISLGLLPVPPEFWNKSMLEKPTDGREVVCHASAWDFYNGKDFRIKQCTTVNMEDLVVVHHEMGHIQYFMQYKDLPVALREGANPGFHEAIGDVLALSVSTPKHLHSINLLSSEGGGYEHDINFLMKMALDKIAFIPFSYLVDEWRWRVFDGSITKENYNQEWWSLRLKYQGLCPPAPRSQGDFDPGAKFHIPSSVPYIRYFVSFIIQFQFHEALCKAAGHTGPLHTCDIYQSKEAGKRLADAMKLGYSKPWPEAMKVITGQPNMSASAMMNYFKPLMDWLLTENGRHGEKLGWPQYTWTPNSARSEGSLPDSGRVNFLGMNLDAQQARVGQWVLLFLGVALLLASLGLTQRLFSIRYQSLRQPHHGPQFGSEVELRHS

Molecule	IC50 (µM), inhibition of angiotensin converting enzyme activity (colorimetry at 505 nm, substrate p-hydroxyl benzoyl glycyl-L-histidyl-L-leucine) [2] [µM]	also measured
Bradykinin potentiator C (peptide)		IC50 (µM), inhibition of angiotensin converting enzyme activity (colorimetry at 505 nm, substrate p-hydroxyl benzoyl glycyl-L-histidyl-L-leucine) [1]: 35 µM
soybean protein hydrolysates prepared with protease D3		IC50 value, the concentration for 50% inhibition against ACE [1]: 180 µg/mL
PNNKPFQ [Pro-Asn-Asn-Lys-Pro-Phe-Gln]	33	
IPPGVPYWT [Ile-Pro-Pro-Gly-Val-Pro-Tyr-Trp-Thr]	64	
NWGPLV [Asn-Trp-Gly-Pro-Leu-Val]	21	
